From publication PMC7278498, “Crystal structures of the GH18 domain of the bifunctional peroxiredoxin–chitinase CotE from Clostridium difficile” (Acta Crystallographica. Section F, Structural Biology …, 2020)

Tests used:
[1] = molecular target: the molecule itself; experiment: crystal structure; hexagonal form, P6_(1)22, ∼2.1 Å; protein washed with 2 M guanidine hydrochloride on the Ni column (partially unfolded/refolded), tag then removed; 0.1 M sodium malonate pH 5.5, 13% PEG 3350, C8E5; dimer formed with a crystallographic symmetry mate
[2] = molecular target: T1, pentapeptide Gly-Pro-Ala-Met-Lys (C. difficile); experiment: crystal structure; monoclinic form, P2_(1), 1.3 Å; 200 mM ammonium phosphate, 22.5% PEG 3350, 291 K; one protein molecule per asymmetric unit; peptide found in the active-site groove; settings: both partners purified
T1 construct: residues 349 and 350 of CotE of Clostridium difficile; the side chain of residue 5 (Lys) is uncertain in the density; also called GPAMK; pentapeptide ligand; source: derived from the N-terminus of the E. coli-made CotE(349–712) after HRV 3C protease cleavage; co-purified and co-crystallised with the protein

B1: CotE(349–712), C-terminal fragment of CotE comprising the GH18 chitinase domain (domain or fragment)
chain: GPAMKTLKDSKKLVRPQITDPYNPIVENANCPDINPIVAEYVLGNPTNVDAQLLDAVIFAFAEIDQSGNLFIPYPRFLNQLLALKGEKPSLKVIVAIGGWGAEGFSDAALTPTSRYNFARQVNQMINEYALDGIDIDWEYPGSSASGITSRPQDRENFTLLLTAIRDVIGDDKWLSVAGTGDRGYINSSAEIDKIAPIIDYFNLMSYDFTAGETGPNGRKHQANLFDSDLSLPGYSVDAMVRNLENAGMPSEKILLGIPFYGRLGATITRTYDELRRDYINKNGYEYRFDNTAQVPYLVKDGDFAMSYDDALSIFLKTQYVLRNCLGGVFSWTSTYDQANILARTMSIGINDPEVLKEELEGIYGQF
notes: CotE spore coat protein (peroxiredoxin-chitinase) of Clostridium difficile, residues 349-712; In the monoclinic crystal the model holds Ile363-Phe712; In the hexagonal crystal the protein is a 3D domain-swapped dimer with an intermolecular Cys376-Cys670 disulfide; also called CotE chitinase domain; chitinase domain of CotE; source: E. coli BL21(DE3), purified (HisTrap, HRV 3C cleavage, second …)
**Q.** Which results are given for B1?
**A.** stoichiometry N [1]: 2; binding result [2]: binds
